# In the supplement of paper PMC9112550, “Optimization of the antimicrobial peptide Bac7 by deep mutational scanning” (BMC Biology, 2022):
# Tested on: Escherichia coli TOP10
# Test: shrunken log2 fold change of peptide-encoding DNA abundance (4.5 h post-induction vs induction); higher = less antimicrobial activity (less host growth inhibition)
# Settings: time post-induction: 4.5 h; library: site-saturation at positions 5, 18, 19, 20
# 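Further: peptides expressed intracellularly from a pBAD plasmid library in pooled LB shake-flask culture, induced with 0.3% L-arabinose, DNA abundance read by NGS, three biological replicates, DESeq2 with apeglm shrinkage.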
row,Sequence,shrunken log2 fold change
1,RRIRHRPPRLPRPRPRPCQTPRP,-0.0148
2,RRIRTRPPRLPRPRPRPKTRPRP,0.221
3,RRIRERPPRLPRPRPRPESKPRP,-0.145
4,RRIRARPPRLPRPRPRPYRLPRP,-0.275
5,RRIRTRPPRLPRPRPRPQHDPRP,-0.259
6,RRIRCRPPRLPRPRPRPEGHPRP,0.38
7,RRIRHRPPRLPRPRPRPMCKPRP,-0.151
8,RRIRGRPPRLPRPRPRPFMVPRP,-0.131
9,RRIRQRPPRLPRPRPRPSCFPRP,-0.529
10,RRIRIRPPRLPRPRPRPGTYPRP,-0.0378
11,RRIRCRPPRLPRPRPRPIRDPRP,-0.231
12,RRIRGRPPRLPRPRPRPCRSPRP,-0.0741
13,RRIRPRPPRLPRPRPRPWDDPRP,-0.144
14,RRIRLRPPRLPRPRPRPACNPRP,-0.191
15,RRIRPRPPRLPRPRPRPMPIPRP,0.0579
16,RRIRTRPPRLPRPRPRPIVKPRP,-0.144
17,RRIRSRPPRLPRPRPRPINMPRP,-0.928
18,RRIRIRPPRLPRPRPRPFSLPRP,-1.26
19,RRIRGRPPRLPRPRPRPPKQPRP,0.292
20,RRIRTRPPRLPRPRPRPGGFPRP,0.413
21,RRIRWRPPRLPRPRPRPDWSPRP,0.0189
22,RRIRNRPPRLPRPRPRPSPEPRP,-0.123
23,RRIRWRPPRLPRPRPRPAHCPRP,-0.0174
24,RRIRDRPPRLPRPRPRPAPWPRP,0.226
25,RRIRKRPPRLPRPRPRPVAVPRP,0.138

row,Sequence,shrunken log2 fold change
1,RRIRSRPPRLPRPRPRPSTGPRP,-0.417
2,RRIRKRPPRLPRPRPRPMQIPRP,-0.0337
3,RRIRLRPPRLPRPRPRPLWCPRP,0.159
4,RRIRGRPPRLPRPRPRPVYCPRP,0.0683
5,RRIRERPPRLPRPRPRPFQVPRP,-0.212
6,RRIRFRPPRLPRPRPRPDMMPRP,-0.0389
7,RRIRDRPPRLPRPRPRPQAIPRP,0.0512
8,RRIRKRPPRLPRPRPRPLQGPRP,0.154
9,RRIRHRPPRLPRPRPRPEPCPRP,0.0696
10,RRIRHRPPRLPRPRPRPCFTPRP,-0.838
11,RRIRARPPRLPRPRPRPIMYPRP,-0.161
12,RRIRTRPPRLPRPRPRPLGGPRP,0.137
13,RRIRMRPPRLPRPRPRPCCGPRP,0.215
14,RRIRERPPRLPRPRPRPFDGPRP,0.000346
15,RRIRIRPPRLPRPRPRPDESPRP,-0.172
16,RRIRARPPRLPRPRPRPIHTPRP,0.0197
17,RRIRLRPPRLPRPRPRPITIPRP,0.0213
18,RRIRCRPPRLPRPRPRPEAPPRP,0.755
19,RRIRVRPPRLPRPRPRPTQWPRP,0.12
20,RRIRERPPRLPRPRPRPWIEPRP,-0.206
21,RRIRMRPPRLPRPRPRPCKVPRP,-0.0465
22,RRIRPRPPRLPRPRPRPQETPRP,0.134
23,RRIRGRPPRLPRPRPRPIVPPRP,0.02
24,RRIRERPPRLPRPRPRPPEPPRP,0.333
25,RRIRERPPRLPRPRPRPTMRPRP,0.732

row,Sequence,shrunken log2 fold change
1,RRIRIRPPRLPRPRPRPPGKPRP,0.324
2,RRIRYRPPRLPRPRPRPASTPRP,-0.0914
3,RRIRCRPPRLPRPRPRPMDKPRP,-0.131
4,RRIRHRPPRLPRPRPRPNELPRP,0.031
5,RRIRPRPPRLPRPRPRPQPAPRP,0.0892
6,RRIRHRPPRLPRPRPRPKYRPRP,-0.138
7,RRIRQRPPRLPRPRPRPFWHPRP,-0.469
8,RRIRPRPPRLPRPRPRPGPNPRP,0.51
9,RRIRERPPRLPRPRPRPMPCPRP,-0.0207
10,RRIRARPPRLPRPRPRPFDWPRP,0.608
11,RRIRQRPPRLPRPRPRPFYEPRP,-0.413
12,RRIRARPPRLPRPRPRPGTNPRP,0.204
13,RRIRLRPPRLPRPRPRPHVPPRP,0.0978
14,RRIRVRPPRLPRPRPRPMWCPRP,-0.139
15,RRIRERPPRLPRPRPRPGYDPRP,-0.191
16,RRIRARPPRLPRPRPRPFVMPRP,-0.181
17,RRIRKRPPRLPRPRPRPIGYPRP,-0.0204
18,RRIRWRPPRLPRPRPRPPLVPRP,0.443
19,RRIRGRPPRLPRPRPRPAYDPRP,0.326
20,RRIRQRPPRLPRPRPRPGAMPRP,0.155
21,RRIRQRPPRLPRPRPRPRFDPRP,-0.0137
22,RRIRQRPPRLPRPRPRPSFGPRP,0.0622
23,RRIRFRPPRLPRPRPRPSRCPRP,-0.0633
24,RRIRWRPPRLPRPRPRPAIVPRP,0.144
25,RRIRLRPPRLPRPRPRPMGGPRP,0.26

row,Sequence,shrunken log2 fold change
1,RRIRVRPPRLPRPRPRPKGIPRP,-0.115
2,RRIRYRPPRLPRPRPRPKNAPRP,-0.186
3,RRIRNRPPRLPRPRPRPLAVPRP,0.0686
4,RRIRGRPPRLPRPRPRPFSFPRP,0.268
5,RRIRERPPRLPRPRPRPCWHPRP,-0.523
6,RRIRKRPPRLPRPRPRPCALPRP,0.0167
7,RRIRRRPPRLPRPRPRPRFRPRP,0.455
8,RRIRMRPPRLPRPRPRPWIEPRP,-0.092
9,RRIRYRPPRLPRPRPRPPERPRP,0.251
10,RRIRWRPPRLPRPRPRPRMQPRP,0.329
11,RRIRGRPPRLPRPRPRPYLDPRP,0.0767
12,RRIRHRPPRLPRPRPRPTSFPRP,0.0399
13,RRIRERPPRLPRPRPRPGKDPRP,-0.24
14,RRIRQRPPRLPRPRPRPQHSPRP,-0.062
15,RRIRGRPPRLPRPRPRPCEHPRP,0.149
16,RRIRERPPRLPRPRPRPESFPRP,0.0447
17,RRIRMRPPRLPRPRPRPKGKPRP,0.288
18,RRIRSRPPRLPRPRPRPWIPPRP,-0.119
19,RRIRKRPPRLPRPRPRPEESPRP,0.0563
20,RRIRQRPPRLPRPRPRPKCCPRP,-0.113
21,RRIRYRPPRLPRPRPRPQAIPRP,-0.066
22,RRIRCRPPRLPRPRPRPHIVPRP,-0.325
23,RRIRTRPPRLPRPRPRPTCIPRP,-0.503
24,RRIRARPPRLPRPRPRPLILPRP,-0.252
25,RRIRTRPPRLPRPRPRPRHNPRP,-0.293

row,Sequence,shrunken log2 fold change
1,RRIRIRPPRLPRPRPRPNFDPRP,0.235
2,RRIRTRPPRLPRPRPRPLADPRP,0.125
3,RRIRARPPRLPRPRPRPFFFPRP,0.419
4,RRIRPRPPRLPRPRPRPSEPPRP,-0.213
5,RRIRTRPPRLPRPRPRPCYSPRP,-0.0481
6,RRIRLRPPRLPRPRPRPTLCPRP,0.163
7,RRIRMRPPRLPRPRPRPDPFPRP,0.0255
8,RRIRERPPRLPRPRPRPLLDPRP,-0.0911
9,RRIRGRPPRLPRPRPRPWVQPRP,0.0601
10,RRIRYRPPRLPRPRPRPGVRPRP,0.0103
11,RRIRIRPPRLPRPRPRPCHLPRP,-0.281
12,RRIRKRPPRLPRPRPRPQERPRP,-0.0146
13,RRIRLRPPRLPRPRPRPIPPPRP,0.0351
14,RRIRYRPPRLPRPRPRPSGLPRP,-0.078
15,RRIRIRPPRLPRPRPRPTPRPRP,0.466
16,RRIRWRPPRLPRPRPRPWWKPRP,-0.00743
17,RRIRCRPPRLPRPRPRPMWPPRP,0.481
18,RRIRYRPPRLPRPRPRPYRGPRP,-0.765
19,RRIRGRPPRLPRPRPRPLYSPRP,0.225
20,RRIRGRPPRLPRPRPRPAVEPRP,1.21
21,RRIRKRPPRLPRPRPRPFLMPRP,0.043
22,RRIRCRPPRLPRPRPRPSGSPRP,-0.125
23,RRIRCRPPRLPRPRPRPECDPRP,0.346
24,RRIRYRPPRLPRPRPRPFQFPRP,0.015
25,RRIRMRPPRLPRPRPRPALYPRP,0.765

row,Sequence,shrunken log2 fold change
1,RRIRTRPPRLPRPRPRPLEKPRP,0.419
2,RRIRLRPPRLPRPRPRPTLKPRP,-0.307
3,RRIRHRPPRLPRPRPRPTPAPRP,0.681
4,RRIRWRPPRLPRPRPRPHGTPRP,-0.137
5,RRIRYRPPRLPRPRPRPAPWPRP,-0.0627
6,RRIRHRPPRLPRPRPRPLSDPRP,-0.0615
7,RRIRQRPPRLPRPRPRPDLAPRP,-0.0142
8,RRIRCRPPRLPRPRPRPCPDPRP,-0.612
9,RRIRSRPPRLPRPRPRPLGNPRP,-0.43
10,RRIRTRPPRLPRPRPRPYMAPRP,-1.06
11,RRIRFRPPRLPRPRPRPWGAPRP,0.0596
12,RRIRERPPRLPRPRPRPGMWPRP,0.178
13,RRIRQRPPRLPRPRPRPPPPPRP,0.822
14,RRIRLRPPRLPRPRPRPIQNPRP,-0.403
15,RRIRFRPPRLPRPRPRPLRVPRP,-0.108
16,RRIRKRPPRLPRPRPRPVATPRP,0.635
17,RRIRLRPPRLPRPRPRPRVKPRP,-0.0432
18,RRIRHRPPRLPRPRPRPHNLPRP,0.0201
19,RRIRWRPPRLPRPRPRPHPTPRP,0.115
20,RRIRFRPPRLPRPRPRPCQPPRP,-0.134
21,RRIRGRPPRLPRPRPRPNETPRP,0.0274
22,RRIRVRPPRLPRPRPRPGLEPRP,0.0118
23,RRIRNRPPRLPRPRPRPDCPPRP,-0.031
24,RRIRHRPPRLPRPRPRPACCPRP,-0.0888
25,RRIRERPPRLPRPRPRPVFTPRP,-0.541
